According to the supplement of paper PMC9112550, “Optimization of the antimicrobial peptide Bac7 by deep mutational scanning” (BMC Biology, 2022):

Tested on: Escherichia coli TOP10
Experiment: shrunken log2 fold change of peptide-encoding DNA abundance (4.5 h post-induction vs induction); higher = less antimicrobial activity (less host growth inhibition)
Settings: time post-induction: 4.5 h; library: site-saturation at positions 5, 18, 19, 20
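Also: peptides expressed intracellularly from a pBAD plasmid library in pooled LB shake-flask culture, induced with 0.3% L-arabinose, DNA abundance read by NGS, three biological replicates, DESeq2 with apeglm shrinkage.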

RRIRHRPPRLPRPRPRPKLLPRP
shrunken log2 fold change: -0.0097

RRIRHRPPRLPRPRPRPKMDPRP
shrunken log2 fold change: -0.014

RRIRHRPPRLPRPRPRPKMFPRP
shrunken log2 fold change: -0.0772

RRIRHRPPRLPRPRPRPKMHPRP
shrunken log2 fold change: -0.0718

RRIRHRPPRLPRPRPRPKMLPRP
shrunken log2 fold change: -0.353

RRIRHRPPRLPRPRPRPKMMPRP
shrunken log2 fold change: 0.00455

RRIRHRPPRLPRPRPRPKPHPRP
shrunken log2 fold change: 0.172

RRIRHRPPRLPRPRPRPKPQPRP
shrunken log2 fold change: 0.269

RRIRHRPPRLPRPRPRPKVHPRP
shrunken log2 fold change: -0.0663

RRIRHRPPRLPRPRPRPKWMPRP
shrunken log2 fold change: -0.123

RRIRHRPPRLPRPRPRPLAFPRP
shrunken log2 fold change: -0.2

RRIRHRPPRLPRPRPRPLAYPRP
shrunken log2 fold change: -0.351

RRIRHRPPRLPRPRPRPLCDPRP
shrunken log2 fold change: -0.397

RRIRHRPPRLPRPRPRPLCNPRP
shrunken log2 fold change: -0.337

RRIRHRPPRLPRPRPRPLCQPRP
shrunken log2 fold change: -0.316

RRIRHRPPRLPRPRPRPLCRPRP
shrunken log2 fold change: 0.0244

RRIRHRPPRLPRPRPRPLFGPRP
shrunken log2 fold change: -0.0987

RRIRHRPPRLPRPRPRPLFIPRP
shrunken log2 fold change: -0.68

RRIRHRPPRLPRPRPRPLGIPRP
shrunken log2 fold change: -0.148

RRIRHRPPRLPRPRPRPLIMPRP
shrunken log2 fold change: -0.561

RRIRHRPPRLPRPRPRPLITPRP
shrunken log2 fold change: -0.324

RRIRHRPPRLPRPRPRPLKPPRP
shrunken log2 fold change: 0.18

RRIRHRPPRLPRPRPRPLKYPRP
shrunken log2 fold change: -0.345

RRIRHRPPRLPRPRPRPLLNPRP
shrunken log2 fold change: -0.443

RRIRHRPPRLPRPRPRPLLSPRP
shrunken log2 fold change: -0.0464

RRIRHRPPRLPRPRPRPLMRPRP
shrunken log2 fold change: 0.221

RRIRHRPPRLPRPRPRPLPNPRP
shrunken log2 fold change: -0.156

RRIRHRPPRLPRPRPRPLPQPRP
shrunken log2 fold change: 0.348

RRIRHRPPRLPRPRPRPLPWPRP
shrunken log2 fold change: 0.108

RRIRHRPPRLPRPRPRPLQSPRP
shrunken log2 fold change: -0.0699

RRIRHRPPRLPRPRPRPLRMPRP
shrunken log2 fold change: -0.0592

RRIRHRPPRLPRPRPRPLTIPRP
shrunken log2 fold change: -0.207

RRIRHRPPRLPRPRPRPLTMPRP
shrunken log2 fold change: -0.3

RRIRHRPPRLPRPRPRPLTVPRP
shrunken log2 fold change: -0.0423

RRIRHRPPRLPRPRPRPLVLPRP
shrunken log2 fold change: -0.0931

RRIRHRPPRLPRPRPRPLVPPRP
shrunken log2 fold change: -0.0575

RRIRHRPPRLPRPRPRPLWSPRP
shrunken log2 fold change: -0.31

RRIRHRPPRLPRPRPRPLWWPRP
shrunken log2 fold change: 0.237

RRIRHRPPRLPRPRPRPLYLPRP
shrunken log2 fold change: -0.4

RRIRHRPPRLPRPRPRPMARPRP
shrunken log2 fold change: 0.0467

RRIRHRPPRLPRPRPRPMCRPRP
shrunken log2 fold change: -0.0487

RRIRHRPPRLPRPRPRPMFQPRP
shrunken log2 fold change: -0.0107

RRIRHRPPRLPRPRPRPMGWPRP
shrunken log2 fold change: 0.317

RRIRHRPPRLPRPRPRPMHDPRP
shrunken log2 fold change: -0.0353

RRIRHRPPRLPRPRPRPMKYPRP
shrunken log2 fold change: -0.0485

RRIRHRPPRLPRPRPRPMLFPRP
shrunken log2 fold change: -0.0839

RRIRHRPPRLPRPRPRPMLTPRP
shrunken log2 fold change: 0.0372

RRIRHRPPRLPRPRPRPMMCPRP
shrunken log2 fold change: -0.0874

RRIRHRPPRLPRPRPRPMMDPRP
shrunken log2 fold change: -0.214

RRIRHRPPRLPRPRPRPMMGPRP
shrunken log2 fold change: -0.01

RRIRHRPPRLPRPRPRPMNPPRP
shrunken log2 fold change: -0.379

RRIRHRPPRLPRPRPRPMPDPRP
shrunken log2 fold change: -0.276

RRIRHRPPRLPRPRPRPMPYPRP
shrunken log2 fold change: -0.00164

RRIRHRPPRLPRPRPRPMQEPRP
shrunken log2 fold change: -0.01

RRIRHRPPRLPRPRPRPMQGPRP
shrunken log2 fold change: -0.0154

RRIRHRPPRLPRPRPRPMRWPRP
shrunken log2 fold change: 0.396

RRIRHRPPRLPRPRPRPMRYPRP
shrunken log2 fold change: -0.0889

RRIRHRPPRLPRPRPRPMSLPRP
shrunken log2 fold change: -0.00613

RRIRHRPPRLPRPRPRPMTCPRP
shrunken log2 fold change: -0.137

RRIRHRPPRLPRPRPRPMTRPRP
shrunken log2 fold change: -0.0247

RRIRHRPPRLPRPRPRPMVIPRP
shrunken log2 fold change: -0.0264

RRIRHRPPRLPRPRPRPMVKPRP
shrunken log2 fold change: -0.0243

RRIRHRPPRLPRPRPRPMWIPRP
shrunken log2 fold change: -0.0176

RRIRHRPPRLPRPRPRPMYLPRP
shrunken log2 fold change: -0.412

RRIRHRPPRLPRPRPRPMYQPRP
shrunken log2 fold change: -0.00419

RRIRHRPPRLPRPRPRPNAFPRP
shrunken log2 fold change: -0.14

RRIRHRPPRLPRPRPRPNCHPRP
shrunken log2 fold change: -0.444

RRIRHRPPRLPRPRPRPNCLPRP
shrunken log2 fold change: -0.0125

RRIRHRPPRLPRPRPRPNDDPRP
shrunken log2 fold change: -0.259

RRIRHRPPRLPRPRPRPNDSPRP
shrunken log2 fold change: -0.072

RRIRHRPPRLPRPRPRPNETPRP
shrunken log2 fold change: 0.00408

RRIRHRPPRLPRPRPRPNFKPRP
shrunken log2 fold change: -0.189

RRIRHRPPRLPRPRPRPNFMPRP
shrunken log2 fold change: -0.5

RRIRHRPPRLPRPRPRPNGLPRP
shrunken log2 fold change: -0.57

RRIRHRPPRLPRPRPRPNHAPRP
shrunken log2 fold change: -0.223

RRIRHRPPRLPRPRPRPNHMPRP
shrunken log2 fold change: 0.124

RRIRHRPPRLPRPRPRPNIKPRP
shrunken log2 fold change: -0.69

RRIRHRPPRLPRPRPRPNKAPRP
shrunken log2 fold change: 0.147

RRIRHRPPRLPRPRPRPNKCPRP
shrunken log2 fold change: -0.431

RRIRHRPPRLPRPRPRPNKEPRP
shrunken log2 fold change: 0.000399

RRIRHRPPRLPRPRPRPNKLPRP
shrunken log2 fold change: -1.05

RRIRHRPPRLPRPRPRPNKQPRP
shrunken log2 fold change: -0.545

RRIRHRPPRLPRPRPRPNMCPRP
shrunken log2 fold change: -0.126

RRIRHRPPRLPRPRPRPNMGPRP
shrunken log2 fold change: -0.0579

RRIRHRPPRLPRPRPRPNMIPRP
shrunken log2 fold change: -0.928

RRIRHRPPRLPRPRPRPNNKPRP
shrunken log2 fold change: -0.75

RRIRHRPPRLPRPRPRPNQHPRP
shrunken log2 fold change: -0.922

RRIRHRPPRLPRPRPRPNRQPRP
shrunken log2 fold change: -0.0122

RRIRHRPPRLPRPRPRPNSLPRP
shrunken log2 fold change: -0.0817

RRIRHRPPRLPRPRPRPNTGPRP
shrunken log2 fold change: 0.121

RRIRHRPPRLPRPRPRPNTVPRP
shrunken log2 fold change: 0.0932

RRIRHRPPRLPRPRPRPNVDPRP
shrunken log2 fold change: 0.187

RRIRHRPPRLPRPRPRPNYQPRP
shrunken log2 fold change: -0.28

RRIRHRPPRLPRPRPRPPACPRP
shrunken log2 fold change: 0.153

RRIRHRPPRLPRPRPRPPALPRP
shrunken log2 fold change: -0.00181

RRIRHRPPRLPRPRPRPPASPRP
shrunken log2 fold change: 1.36

RRIRHRPPRLPRPRPRPPCYPRP
shrunken log2 fold change: -0.131

RRIRHRPPRLPRPRPRPPDPPRP
shrunken log2 fold change: 0.832

RRIRHRPPRLPRPRPRPPDQPRP
shrunken log2 fold change: 0.594

RRIRHRPPRLPRPRPRPPDVPRP
shrunken log2 fold change: 0.113

RRIRHRPPRLPRPRPRPPERPRP
shrunken log2 fold change: 0.511

RRIRHRPPRLPRPRPRPPGTPRP
shrunken log2 fold change: 0.0679

RRIRHRPPRLPRPRPRPPGWPRP
shrunken log2 fold change: 0.424

RRIRHRPPRLPRPRPRPPINPRP
shrunken log2 fold change: -0.294

RRIRHRPPRLPRPRPRPPKAPRP
shrunken log2 fold change: 0.0427

RRIRHRPPRLPRPRPRPPKFPRP
shrunken log2 fold change: -0.223

RRIRHRPPRLPRPRPRPPLCPRP
shrunken log2 fold change: 0.0792

RRIRHRPPRLPRPRPRPPMIPRP
shrunken log2 fold change: -0.105

RRIRHRPPRLPRPRPRPPMRPRP
shrunken log2 fold change: 0.747

RRIRHRPPRLPRPRPRPPNQPRP
shrunken log2 fold change: -0.0151

RRIRHRPPRLPRPRPRPPPEPRP
shrunken log2 fold change: 0.836

RRIRHRPPRLPRPRPRPPQAPRP
shrunken log2 fold change: 0.236

RRIRHRPPRLPRPRPRPPQVPRP
shrunken log2 fold change: -0.0255

RRIRHRPPRLPRPRPRPPRNPRP
shrunken log2 fold change: 0.105

RRIRHRPPRLPRPRPRPPRQPRP
shrunken log2 fold change: 0.108

RRIRHRPPRLPRPRPRPPSKPRP
shrunken log2 fold change: -0.122

RRIRHRPPRLPRPRPRPPTAPRP
shrunken log2 fold change: 0.212

RRIRHRPPRLPRPRPRPPTGPRP
shrunken log2 fold change: 0.03

RRIRHRPPRLPRPRPRPPTNPRP
shrunken log2 fold change: 0.101

RRIRHRPPRLPRPRPRPPTVPRP
shrunken log2 fold change: 0.184

RRIRHRPPRLPRPRPRPPVIPRP
shrunken log2 fold change: -0.251

RRIRHRPPRLPRPRPRPPVVPRP
shrunken log2 fold change: 0.253

RRIRHRPPRLPRPRPRPPYDPRP
shrunken log2 fold change: -0.0114

RRIRHRPPRLPRPRPRPQAAPRP
shrunken log2 fold change: -0.0209

RRIRHRPPRLPRPRPRPQASPRP
shrunken log2 fold change: 0.0479

RRIRHRPPRLPRPRPRPQDGPRP
shrunken log2 fold change: -0.0342

RRIRHRPPRLPRPRPRPQDSPRP
shrunken log2 fold change: -0.00865

RRIRHRPPRLPRPRPRPQFHPRP
shrunken log2 fold change: -0.153

RRIRHRPPRLPRPRPRPQFNPRP
shrunken log2 fold change: -0.619

RRIRHRPPRLPRPRPRPQFYPRP
shrunken log2 fold change: -0.192

RRIRHRPPRLPRPRPRPQGDPRP
shrunken log2 fold change: 0.0795

RRIRHRPPRLPRPRPRPQGKPRP
shrunken log2 fold change: -0.0805

RRIRHRPPRLPRPRPRPQHEPRP
shrunken log2 fold change: -0.191

RRIRHRPPRLPRPRPRPQHPPRP
shrunken log2 fold change: -0.396

RRIRHRPPRLPRPRPRPQIFPRP
shrunken log2 fold change: -0.135

RRIRHRPPRLPRPRPRPQKKPRP
shrunken log2 fold change: -0.421

RRIRHRPPRLPRPRPRPQPIPRP
shrunken log2 fold change: -0.13

RRIRHRPPRLPRPRPRPQQIPRP
shrunken log2 fold change: -0.0193

RRIRHRPPRLPRPRPRPQQMPRP
shrunken log2 fold change: 0.00835

RRIRHRPPRLPRPRPRPQQQPRP
shrunken log2 fold change: -0.158

RRIRHRPPRLPRPRPRPQQTPRP
shrunken log2 fold change: 0.0173

RRIRHRPPRLPRPRPRPQSKPRP
shrunken log2 fold change: -0.342

RRIRHRPPRLPRPRPRPQSYPRP
shrunken log2 fold change: -0.175

RRIRHRPPRLPRPRPRPQTTPRP
shrunken log2 fold change: -0.0121

RRIRHRPPRLPRPRPRPQVMPRP
shrunken log2 fold change: -0.0437

RRIRHRPPRLPRPRPRPQVTPRP
shrunken log2 fold change: -0.0667

RRIRHRPPRLPRPRPRPQWQPRP
shrunken log2 fold change: -0.0687

RRIRHRPPRLPRPRPRPQYDPRP
shrunken log2 fold change: -1.12

RRIRHRPPRLPRPRPRPRDYPRP
shrunken log2 fold change: 0.0554

RRIRHRPPRLPRPRPRPRELPRP
shrunken log2 fold change: 0.234
